Measurements as given in US20230357422A1 (published 2023).

target: T1, 4-1BB antigen (human, UniProt Q07011 24-186, limits assumed); assay: BLI (ForteBio), antibody on AHQ sensor, 100 nM 4-1BB antigen, 1:1 model
T1 construct: also called human 4-1BB antigen; human 4-1BB protein
Procedure: ForteBio affinity determination was performed according to the existing method (Estep, P et al., Solution-based measurement of high-throughput antibody-antigen affinity and epitope classification, MAbs, 2013.5(2):p. 270-8). Briefly, the sensor was equilibrated offline for 30 min in the assay buffer, then the baseline was established by detection online for 60 s, and the purified antibody obtained as described above was loaded onto the AHQ sensor online. Then, the sensor was put into 100 nM 4-1BB antigen to act for 5 minutes, and the sensor was transferred to PBS and dissociated for 5 minutes. Analysis of kinetics was performed using a 1:1 binding model.

T1 sequence (Q07011 24-186 limits assumed): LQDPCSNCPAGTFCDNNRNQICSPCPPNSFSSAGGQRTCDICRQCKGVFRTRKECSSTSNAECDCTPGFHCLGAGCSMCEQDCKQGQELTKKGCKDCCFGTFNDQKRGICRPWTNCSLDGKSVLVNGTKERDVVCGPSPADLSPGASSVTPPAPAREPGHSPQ

Kd [nM] | Binder
22.6 | A-Ye-22 (Fc fusion) QVQLQESGGGLVQAGGSLRLSCAASGFSLDYYAIGWFRQAPGKEREWVSCITASDSSAYYADSVKGRFTISRDNAKNTVYLRMNSLKPEDTAVYYCAAPRSDCFHYGENDYWGQGTQVTVSSTHTCPPCPAPEAAGGPSVFLFPPKPKDTLMISRTPEVTCVVVDVSHEDPEVKFNWYVDGVEVHNAKTKPREEQYNSTYRVVSVLTVLHQDWLNGKEYKCKVSNKALPAPIEKTISKAKGQPREPQVYTLPPSREEMTKNQVSLTCLVKGFYPSDIAVEWESNGQPENNYKTTPPVLDSDGSFFLYSKLTVDKSRWQQGNVFSCSVMHEALHNHYTQKSLSLSPG
23.4 | A-Ye-23 (Fc fusion) QVQLQESGGGLVQPGGSLRLSCAASGFSLGLYAIAWFRQAPGKEREWVSCIEKSDSSAYYADSVKGRFTVSRDNAKNTVDLQMNRLSPEDTAVYYCAAPQSDCFHYKENDYWGQGTQVTVSSTHTCPPCPAPEAAGGPSVFLFPPKPKDTLMISRTPEVTCVVVDVSHEDPEVKFNWYVDGVEVHNAKTKPREEQYNSTYRVVSVLTVLHQDWLNGKEYKCKVSNKALPAPIEKTISKAKGQPREPQVYTLPPSREEMTKNQVSLTCLVKGFYPSDIAVEWESNGQPENNYKTTPPVLDSDGSFFLYSKLTVDKSRWQQGNVFSCSVMHEALHNHYTQKSLSLSPG
33.5 | L-Yr-13&14-05 (Fc fusion) QVQLQESGGGLVQAGGSLRLSCAASGRTLSGYVMGWFRQASGKERELVAAISSGGSTYYEDSVKGRFTISRDNAKNTMYLQMNSLKPEDTAVYYCAADPRRLTGLYDYWGQGTQVTVSSTHTCPPCPAPEAAGGPSVFLFPPKPKDTLMISRTPEVTCVVVDVSHEDPEVKFNWYVDGVEVHNAKTKPREEQYNSTYRVVSVLTVLHQDWLNGKEYKCKVSNKALPAPIEKTISKAKGQPREPQVYTLPPSREEMTKNQVSLTCLVKGFYPSDIAVEWESNGQPENNYKTTPPVLDSDGSFFLYSKLTVDKSRWQQGNVFSCSVMHEALHNHYTQKSLSLSPG
19.1 | L-Yr-13&14-03 (Fc fusion) QVQLQESGGGLVQPGESLRLSCDSGRIFSYNFMGWYRQAPGKQRELVASITWGGTIKYADSVKGRFTISRHDAENTVYLQMNSLKSEDTAVYYCHAATDTGVIYWGQGTQVTVSSTHTCPPCPAPEAAGGPSVFLFPPKPKDTLMISRTPEVTCVVVDVSHEDPEVKFNWYVDGVEVHNAKTKPREEQYNSTYRVVSVLTVLHQDWLNGKEYKCKVSNKALPAPIEKTISKAKGQPREPQVYTLPPSREEMTKNQVSLTCLVKGFYPSDIAVEWESNGQPENNYKTTPPVLDSDGSFFLYSKLTVDKSRWQQGNVFSCSVMHEALHNHYTQKSLSLSPG
19.5 | L-Yr-13&14-01 (Fc fusion) QVQLQESGGGLVQAGGSLRLSCAASGSFNAMGWWRQAPGKQREFVAIITRDGSTNLADSVKGRFTISSDNAKNTWFLQMNSLKPEDTAVYYCSASDYGSSLYYWGQGTQVTVSSTHTCPPCPAPEAAGGPSVFLFPPKPKDTLMISRTPEVTCVVVDVSHEDPEVKFNWYVDGVEVHNAKTKPREEQYNSTYRVVSVLTVLHQDWLNGKEYKCKVSNKALPAPIEKTISKAKGQPREPQVYTLPPSREEMTKNQVSLTCLVKGFYPSDIAVEWESNGQPENNYKTTPPVLDSDGSFFLYSKLTVDKSRWQQGNVFSCSVMHEALHNHYTQKSLSLSPG
20.6 | L-Yr-13&14-06 (Fc fusion) QVQLQESGGGLVEAGGSLRLSCAASGSIFSINVMGWYRQAPGKQRELVAVITSDYSTNYADSVKGRFTISRDNAKNTVYLQMNSLKPEDTAVYHCAATGYGSSPWYWGQGTQVTVSSTHTCPPCPAPEAAGGPSVFLFPPKPKDTLMISRTPEVTCVVVDVSHEDPEVKFNWYVDGVEVHNAKTKPREEQYNSTYRVVSVLTVLHQDWLNGKEYKCKVSNKALPAPIEKTISKAKGQPREPQVYTLPPSREEMTKNQVSLTCLVKGFYPSDIAVEWESNGQPENNYKTTPPVLDSDGSFFLYSKLTVDKSRWQQGNVFSCSVMHEALHNHYTQKSLSLSPG
